system: Escherichia coli TOP10; test: shrunken log2 fold change of peptide-encoding DNA abundance (4.5 h post-induction vs induction); higher = less antimicrobial activity (less host growth inhibition); conditions: time post-induction: 4.5 h; library: site-saturation at positions 5, 18, 19, 20
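Note: peptides expressed intracellularly from a pBAD plasmid library in pooled LB shake-flask culture, induced with 0.3% L-arabinose, DNA abundance read by NGS, three biological replicates, DESeq2 with apeglm shrinkage.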

| Sequence | shrunken log2 fold change |
| --- | --- |
| RRIRSRPPRLPRPRPRPSFMPRP | -0.335 |
| RRIRERPPRLPRPRPRPEMMPRP | -0.269 |
| RRIRVRPPRLPRPRPRPHGMPRP | -0.582 |
| RRIRDRPPRLPRPRPRPHSLPRP | -0.341 |
| RRIRERPPRLPRPRPRPAPWPRP | 0.203 |
| RRIRIRPPRLPRPRPRPEMDPRP | -0.277 |
| RRIRNRPPRLPRPRPRPISNPRP | 0.0351 |
| RRIRSRPPRLPRPRPRPTIMPRP | -0.508 |
| RRIRPRPPRLPRPRPRPGETPRP | 0.117 |
| RRIRARPPRLPRPRPRPEWCPRP | 0.72 |
| RRIRGRPPRLPRPRPRPYCWPRP | 0.0345 |
| RRIRSRPPRLPRPRPRPRGSPRP | 0.378 |
| RRIRWRPPRLPRPRPRPQGSPRP | -0.00843 |
| RRIRVRPPRLPRPRPRPNMAPRP | -0.38 |
| RRIRQRPPRLPRPRPRPPYDPRP | -0.152 |
| RRIRWRPPRLPRPRPRPMMWPRP | 0.0342 |
| RRIRMRPPRLPRPRPRPDTEPRP | 0.33 |
| RRIRFRPPRLPRPRPRPGRAPRP | 0.712 |
| RRIRPRPPRLPRPRPRPLFTPRP | -0.385 |
| RRIRHRPPRLPRPRPRPMYHPRP | -0.287 |

| Sequence | shrunken log2 fold change |
| --- | --- |
| RRIRQRPPRLPRPRPRPMDFPRP | 0.015 |
| RRIRCRPPRLPRPRPRPKKLPRP | 0.063 |
| RRIRERPPRLPRPRPRPKADPRP | -0.0439 |
| RRIRVRPPRLPRPRPRPRSEPRP | -0.14 |
| RRIRARPPRLPRPRPRPIYQPRP | 0.0519 |
| RRIRKRPPRLPRPRPRPECSPRP | 0.854 |
| RRIRQRPPRLPRPRPRPQHRPRP | -0.0379 |
| RRIRIRPPRLPRPRPRPVHGPRP | -0.0643 |
| RRIRERPPRLPRPRPRPFFRPRP | -0.112 |
| RRIRLRPPRLPRPRPRPNGAPRP | 0.0311 |
| RRIRKRPPRLPRPRPRPHIYPRP | -0.175 |
| RRIRCRPPRLPRPRPRPSSPPRP | -0.461 |
| RRIRGRPPRLPRPRPRPFGSPRP | 0.081 |
| RRIRFRPPRLPRPRPRPIRAPRP | -0.0742 |
| RRIRFRPPRLPRPRPRPLSSPRP | -0.307 |
| RRIRYRPPRLPRPRPRPLKCPRP | -0.301 |
| RRIRFRPPRLPRPRPRPQMRPRP | 0.495 |
| RRIRQRPPRLPRPRPRPLAQPRP | 0.233 |
| RRIRCRPPRLPRPRPRPNEEPRP | -0.00783 |
| RRIRPRPPRLPRPRPRPKDAPRP | 0.164 |

| Sequence | shrunken log2 fold change |
| --- | --- |
| RRIRPRPPRLPRPRPRPDICPRP | 0.0683 |
| RRIRRRPPRLPRPRPRPCFQPRP | -0.0758 |
| RRIRMRPPRLPRPRPRPESRPRP | 2.68 |
| RRIRTRPPRLPRPRPRPGWAPRP | 0.622 |
| RRIRLRPPRLPRPRPRPMVRPRP | 0.0341 |
| RRIRPRPPRLPRPRPRPHWHPRP | -0.124 |
| RRIRIRPPRLPRPRPRPREPPRP | 0.183 |
| RRIRVRPPRLPRPRPRPQHCPRP | 0.0856 |
| RRIRQRPPRLPRPRPRPEDYPRP | -0.0734 |
| RRIRDRPPRLPRPRPRPRKYPRP | -0.283 |
| RRIRKRPPRLPRPRPRPGATPRP | 1.09 |
| RRIRCRPPRLPRPRPRPIEHPRP | -0.00454 |
| RRIRQRPPRLPRPRPRPMSGPRP | 0.076 |
| RRIRTRPPRLPRPRPRPCKHPRP | -0.0101 |
| RRIRERPPRLPRPRPRPKEYPRP | -0.0204 |
| RRIRNRPPRLPRPRPRPNDVPRP | -0.00503 |
| RRIRMRPPRLPRPRPRPASAPRP | 1.09 |
| RRIRKRPPRLPRPRPRPRKHPRP | 0.328 |
| RRIRRRPPRLPRPRPRPSKYPRP | -0.483 |
| RRIRTRPPRLPRPRPRPQHTPRP | -0.733 |

Reference: the supplement of paper PMC9112550, “Optimization of the antimicrobial peptide Bac7 by deep mutational scanning” (BMC Biology, 2022)
